# From paper PMC13264800
# Legend:
# [1] = biological target: recombinant human IgE (trastuzumab-IgE; anti-Her2-IgE) (human); experiment: SEC-MALS; trastuzumab-IgE mixed with anti-IgE IgG at different molar ratios
# [2] = biological target: recombinant human IgE (trastuzumab-IgE; anti-Her2-IgE) (human); experiment: SPR; Biacore X100, HBS-EP+ running buffer; Her2 amine-coupled on a CM5 chip, trastuzumab-IgE captured via Her2; anti-IgE as full-length IgG or Fab injected (1.56-25 nM or 1.56-50 nM), association 120 s, dissociation 300 s; 1:1 langmuir fit
# [3] = biological target: recombinant macaque IgE (trastuzumab-IgE; anti-Her2-IgE) (macaque); experiment: as above
stoichiometry N (4:4 (anti-IgE:IgE)) [1],Kd [2] [nM],Kd [3] [nM],koff [2] [s⁻¹],kon [2] [M⁻¹ s⁻¹],koff [3] [s⁻¹],kon [3] [M⁻¹ s⁻¹],Substance
4,0.0594,0.0543,–,–,–,–,Omalizumab full-length IgG (antibody)
–,14.6,16.1,0.00614,420000,0.00811,504000,Omalizumab Fab
